Measured values as given in the supplement of paper PMC9112550, “Optimization of the antimicrobial peptide Bac7 by deep mutational scanning” (BMC Biology, 2022).

Tested on: Escherichia coli TOP10
Experiment: shrunken log2 fold change of peptide-encoding DNA abundance (4.5 h post-induction vs induction); higher = less antimicrobial activity (less host growth inhibition)
Conditions: time post-induction: 4.5 h; library: site-saturation at positions 5, 18, 19, 20
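Also: peptides expressed intracellularly from a pBAD plasmid library in pooled LB shake-flask culture, induced with 0.3% L-arabinose, DNA abundance read by NGS, three biological replicates, DESeq2 with apeglm shrinkage.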

| Sequence | shrunken log2 fold change |
| --- | --- |
| RRIRYRPPRLPRPRPRPQQDPRP | -0.0899 |
| RRIRFRPPRLPRPRPRPVCKPRP | -0.139 |
| RRIRIRPPRLPRPRPRPCWTPRP | -0.281 |
| RRIRTRPPRLPRPRPRPMIQPRP | -0.146 |
| RRIRKRPPRLPRPRPRPHVPPRP | 0.207 |
| RRIRLRPPRLPRPRPRPIPEPRP | 0.0268 |
| RRIRVRPPRLPRPRPRPRSCPRP | 0.0646 |
| RRIRKRPPRLPRPRPRPATTPRP | 0.407 |
| RRIRARPPRLPRPRPRPQVYPRP | -0.174 |
| RRIRGRPPRLPRPRPRPSMAPRP | 0.749 |
| RRIRDRPPRLPRPRPRPAKSPRP | -0.0126 |
| RRIRPRPPRLPRPRPRPCTCPRP | -0.049 |
| RRIRCRPPRLPRPRPRPAPEPRP | 0.766 |
| RRIRIRPPRLPRPRPRPDVKPRP | -0.147 |
| RRIRNRPPRLPRPRPRPQVMPRP | 0.06 |
| RRIRFRPPRLPRPRPRPPKCPRP | 0.0793 |
| RRIRKRPPRLPRPRPRPKDYPRP | -0.0531 |
| RRIRCRPPRLPRPRPRPHMCPRP | 0.099 |
| RRIRCRPPRLPRPRPRPMLMPRP | 0.0436 |
| RRIRGRPPRLPRPRPRPNCVPRP | 0.543 |
| RRIRHRPPRLPRPRPRPSLWPRP | 0.257 |
| RRIRQRPPRLPRPRPRPMYCPRP | -0.526 |
| RRIRMRPPRLPRPRPRPAACPRP | 0.763 |
| RRIRFRPPRLPRPRPRPFCIPRP | -0.518 |
| RRIRKRPPRLPRPRPRPVYNPRP | -0.0144 |

| Sequence | shrunken log2 fold change |
| --- | --- |
| RRIRIRPPRLPRPRPRPCDEPRP | 0.0357 |
| RRIRIRPPRLPRPRPRPLNSPRP | -0.652 |
| RRIRRRPPRLPRPRPRPIVIPRP | -0.125 |
| RRIRARPPRLPRPRPRPNQVPRP | -0.0439 |
| RRIRYRPPRLPRPRPRPCGSPRP | 0.00387 |
| RRIRQRPPRLPRPRPRPGVGPRP | 0.18 |
| RRIRARPPRLPRPRPRPRFMPRP | 0.0944 |
| RRIRLRPPRLPRPRPRPYYCPRP | -0.223 |
| RRIRIRPPRLPRPRPRPPWYPRP | -0.394 |
| RRIRIRPPRLPRPRPRPIIWPRP | -0.167 |
| RRIRWRPPRLPRPRPRPKDTPRP | -0.145 |
| RRIRHRPPRLPRPRPRPTKMPRP | 0.0724 |
| RRIRWRPPRLPRPRPRPGGIPRP | 0.22 |
| RRIRTRPPRLPRPRPRPHKDPRP | -0.973 |
| RRIRVRPPRLPRPRPRPPMEPRP | -0.172 |
| RRIRKRPPRLPRPRPRPHVSPRP | -0.00259 |
| RRIRKRPPRLPRPRPRPSCTPRP | 0.0868 |
| RRIRHRPPRLPRPRPRPVPSPRP | 0.0513 |
| RRIRWRPPRLPRPRPRPIMAPRP | 0.14 |
| RRIRIRPPRLPRPRPRPFFAPRP | 0.073 |
| RRIRLRPPRLPRPRPRPDLMPRP | -0.145 |
| RRIRHRPPRLPRPRPRPNAEPRP | -0.0088 |
| RRIRKRPPRLPRPRPRPCAEPRP | 0.951 |
| RRIRIRPPRLPRPRPRPWLDPRP | -0.353 |
| RRIRQRPPRLPRPRPRPLRWPRP | 0.585 |

| Sequence | shrunken log2 fold change |
| --- | --- |
| RRIRWRPPRLPRPRPRPAWQPRP | 0.427 |
| RRIRQRPPRLPRPRPRPKPIPRP | -0.112 |
| RRIRLRPPRLPRPRPRPNFAPRP | 0.0393 |
| RRIRSRPPRLPRPRPRPHCTPRP | -0.298 |
| RRIRKRPPRLPRPRPRPRHDPRP | 0.254 |
| RRIRARPPRLPRPRPRPDHWPRP | 0.0446 |
| RRIRCRPPRLPRPRPRPLCHPRP | -0.213 |
| RRIRIRPPRLPRPRPRPDVFPRP | -0.115 |
| RRIRPRPPRLPRPRPRPKRYPRP | 0.281 |
| RRIRNRPPRLPRPRPRPLPFPRP | -0.153 |
| RRIRWRPPRLPRPRPRPNIYPRP | -0.307 |
| RRIRDRPPRLPRPRPRPEVHPRP | 0.168 |
| RRIRSRPPRLPRPRPRPHNWPRP | -0.248 |
| RRIRQRPPRLPRPRPRPGRYPRP | -0.205 |
| RRIRSRPPRLPRPRPRPAQLPRP | -0.142 |
| RRIRCRPPRLPRPRPRPDLQPRP | -0.00569 |
| RRIRQRPPRLPRPRPRPEISPRP | 0.139 |
| RRIRVRPPRLPRPRPRPDRIPRP | -0.135 |
| RRIRFRPPRLPRPRPRPWPVPRP | 0.139 |
| RRIRMRPPRLPRPRPRPHQPPRP | 0.0274 |
| RRIRRRPPRLPRPRPRPWCGPRP | 0.282 |
| RRIRSRPPRLPRPRPRPIGVPRP | 0.049 |
| RRIRYRPPRLPRPRPRPFIQPRP | -0.126 |
| RRIRWRPPRLPRPRPRPETNPRP | 0.187 |
| RRIRPRPPRLPRPRPRPGFFPRP | 0.216 |

| Sequence | shrunken log2 fold change |
| --- | --- |
| RRIRIRPPRLPRPRPRPLTMPRP | -0.181 |
| RRIRNRPPRLPRPRPRPFLFPRP | -0.301 |
| RRIRPRPPRLPRPRPRPEDWPRP | 0.391 |
| RRIRRRPPRLPRPRPRPVRQPRP | 0.874 |
| RRIRFRPPRLPRPRPRPWLNPRP | -0.189 |
| RRIRNRPPRLPRPRPRPYYIPRP | -0.131 |
| RRIRYRPPRLPRPRPRPEIHPRP | -0.224 |
| RRIRPRPPRLPRPRPRPNKGPRP | -0.266 |
| RRIRYRPPRLPRPRPRPVYSPRP | 4.05 |
| RRIRRRPPRLPRPRPRPVNHPRP | 0.177 |
| RRIRLRPPRLPRPRPRPKEYPRP | -0.567 |
| RRIRQRPPRLPRPRPRPMDRPRP | 0.0291 |
| RRIRQRPPRLPRPRPRPDFKPRP | -0.229 |
| RRIRCRPPRLPRPRPRPPEPPRP | 0.457 |
| RRIRHRPPRLPRPRPRPTSNPRP | -0.448 |
| RRIRKRPPRLPRPRPRPANLPRP | 0.299 |
| RRIRCRPPRLPRPRPRPEEIPRP | -0.0231 |
| RRIRYRPPRLPRPRPRPQDDPRP | -0.0017 |
| RRIRGRPPRLPRPRPRPEVMPRP | 1.41 |
| RRIRHRPPRLPRPRPRPHEFPRP | 0.0248 |
| RRIRQRPPRLPRPRPRPSLIPRP | -0.275 |
| RRIRSRPPRLPRPRPRPHENPRP | 0.0415 |
| RRIRGRPPRLPRPRPRPFSTPRP | -0.0796 |
| RRIRNRPPRLPRPRPRPGHFPRP | 0.0512 |
| RRIRHRPPRLPRPRPRPIISPRP | -0.247 |

| Sequence | shrunken log2 fold change |
| --- | --- |
| RRIRRRPPRLPRPRPRPCIQPRP | -0.271 |
| RRIRIRPPRLPRPRPRPSMRPRP | -0.000106 |
| RRIRARPPRLPRPRPRPLKFPRP | -0.38 |
| RRIRFRPPRLPRPRPRPLLCPRP | -0.105 |
| RRIRLRPPRLPRPRPRPVRLPRP | 0.576 |
| RRIRCRPPRLPRPRPRPQICPRP | 0.0827 |
| RRIRVRPPRLPRPRPRPHTNPRP | -0.471 |
| RRIRWRPPRLPRPRPRPCHVPRP | -0.437 |
| RRIRNRPPRLPRPRPRPTVSPRP | -0.268 |
| RRIRKRPPRLPRPRPRPWQQPRP | 0.608 |
| RRIRLRPPRLPRPRPRPVTQPRP | -0.323 |
| RRIRVRPPRLPRPRPRPYVWPRP | -0.567 |
| RRIRMRPPRLPRPRPRPQEIPRP | -0.00046 |
| RRIRDRPPRLPRPRPRPSEHPRP | 0.12 |
| RRIRCRPPRLPRPRPRPQVPPRP | -0.106 |
| RRIRYRPPRLPRPRPRPHCCPRP | -0.0599 |
| RRIRGRPPRLPRPRPRPTYWPRP | 0.186 |
| RRIRYRPPRLPRPRPRPACDPRP | -0.00452 |
| RRIRSRPPRLPRPRPRPRHIPRP | -0.264 |
| RRIRYRPPRLPRPRPRPYILPRP | -0.264 |
| RRIRERPPRLPRPRPRPAWEPRP | 0.506 |
| RRIRDRPPRLPRPRPRPDCAPRP | 1.41 |
| RRIRDRPPRLPRPRPRPMVMPRP | 0.133 |
| RRIRARPPRLPRPRPRPGSYPRP | 0.14 |
| RRIRHRPPRLPRPRPRPWYTPRP | -0.17 |

| Sequence | shrunken log2 fold change |
| --- | --- |
| RRIRRRPPRLPRPRPRPITVPRP | -0.179 |
| RRIRYRPPRLPRPRPRPHAHPRP | -0.479 |
| RRIRVRPPRLPRPRPRPLAAPRP | 0.152 |
| RRIRDRPPRLPRPRPRPKPIPRP | 0.106 |
| RRIRRRPPRLPRPRPRPRFYPRP | -0.237 |
| RRIRRRPPRLPRPRPRPYPCPRP | 0.253 |
| RRIRNRPPRLPRPRPRPIKKPRP | 0.149 |
| RRIRHRPPRLPRPRPRPYIQPRP | -0.73 |
| RRIRYRPPRLPRPRPRPLGQPRP | -0.261 |
| RRIRQRPPRLPRPRPRPRDTPRP | 0.0606 |
| RRIRARPPRLPRPRPRPWEWPRP | 0.0233 |
| RRIRIRPPRLPRPRPRPKDMPRP | -0.221 |
| RRIRERPPRLPRPRPRPFWCPRP | -0.014 |
| RRIRFRPPRLPRPRPRPMRKPRP | 0.222 |
| RRIRHRPPRLPRPRPRPQHMPRP | -1.2 |
| RRIRRRPPRLPRPRPRPQSKPRP | -0.0754 |
| RRIRSRPPRLPRPRPRPWGWPRP | 0.0685 |
| RRIRFRPPRLPRPRPRPLTDPRP | -0.143 |
| RRIRKRPPRLPRPRPRPWGFPRP | 0.0651 |
| RRIRPRPPRLPRPRPRPGRSPRP | 0.0919 |
| RRIRGRPPRLPRPRPRPPSCPRP | 0.654 |
| RRIRCRPPRLPRPRPRPGMTPRP | 0.0507 |
| RRIRARPPRLPRPRPRPSVPPRP | -0.179 |
| RRIRTRPPRLPRPRPRPLQIPRP | 4.62 |
| RRIRYRPPRLPRPRPRPFFAPRP | -0.18 |
